Reference: IntAct's records for PubMed 18287031

B1: Protein aveugle (Drosophila melanogaster (Fruit fly)), Q8ML92 (parent)
chain: MGEETINSTQNKTRTKTTRPKAVYLWTVSDVLKWYRRHCGEYTQYEQLFAQHDITGRALLRITDSSLQRMGVTDNRDREAIWREIVKQRLKTDIMEIRDMERLNIY
B2: Connector enhancer of kinase suppressor of ras 2 (Homo sapiens), Q8WXI2 (parent)
chain: MALIMEPVSKWSPSQVVDWMKGLDDCLQQYIKNFEREKISGDQLLRITHQELEDLGVSRIGHQELILEAVDLLCALNYGLETENLKTLSHKLNASAKNLQNFITGRRRSGHYDGRTSRKLPNDFLTSVVDLIGAAKSLLAWLDRSPFAAVTDYSVTRNNVIQLCLELTTIVQQDCTVYETENKILHVCKTLSGVCDHIISLSSDPLVSQSAHLEVIQLANIKPSEGLGMYIKSTYDGLHVITGTTENSPADRCKKIHAGDEVIQVNHQTVVGWQLKNLVNALREDPSGVILTLKKRPQSMLTSAPALLKNMRWKPLALQPLIPRSPTSSVATPSSTISTPTKRDSSALQDLYIPPPPAEPYIPRDEKGNLPCEDLRGHMVGKPVHKGSESPNSFLDQEYRKRFNIVEEDTVLYCYEYEKGRSSSQGRRESTPTYGKLRPISMPVEYNWVGDYEDPNKMKRDSRRENSLLRYMSNEKIAQEEYMFQRNSKKDTGKKSKKKGDKSNSPTHYSLLPSLQMDALRQDIMGTPVPETTLYHTFQQSSLQHKSKKKNKGPIAGKSKRRISCKDLGRGDCEGWLWKKKDAKSYFSQKWKKYWFVLKDASLYWYINEEDEKAEGFISLPEFKIDRASECRKKYAFKACHPKIKSFYFAAEHLDDMNRWLNRINMLTAGYAERERIKQEQDYWSESDKEEADTPSTPKQDSPPPPYDTYPRPPSMSCASPYVEAKHSRLSSTETSQSQSSHEEFRQEVTGSSAVSPIRKTASQRRSWQDLIETPLTSSGLHYLQTLPLEDSVFSDSAAISPEHRRQSTLPTQKCHLQDHYGPYPLAESERMQVLNGNGGKPRSFTLPRDSGFNHCCLNAPVSACDPQDDVQPPEVEEEEEEEEEEGEAAGENIGEKSESREEKLGDSLQDLYRALEQASLSPLGEHRISTKMEYKLSFIKRCNDPVMNEKLHRLRILKSTLKAREGEVAIIDKVLDNPDLTSKEFQQWKQMYLDLFLDICQNTTSNDPLSISSEVDVITSSLAHTHSYIETHV
partner: B1 chain

Variants of: B1
Settings: with cnkr2_human CNKSR2, Q8WXI2

Variant	effect of a mutation on the interaction
MGEETINSTQNKTRTKTTRPKAVYLWTVSDVLKWYRRHCGEYTQYEQLFAQHDITGAALLAITDSSLQRMGVTDNRDREAIWREIVKQRLKTDIMEIRDMERLNIY	decreasing interaction
MGEETINSTQNKTRTKTTRPKAVYLWTVSDVLKWYRRHCGEYTQYEQLFAQHDITGEALLEITDSSLQRMGVTDNRDREAIWREIVKQRLKTDIMEIRDMERLNIY	disrupting interaction
MGEETINSTQNKTRTKTTRPKAVYLWTVSDVLKWYRRHCGEYTQYEQLFAQHDITGRALLEITDSSLQRMGVTDNRDREAIWREIVKQRLKTDIMEIRDMERLNIY	decreasing interaction

Variants of: B2
Settings: with ave_drome ave, Q8ML92

Variant	effect of a mutation on the interaction
I60A	decreasing interaction
E68R;D71R	disrupting interaction
D71R	decreasing interaction
